Starred links: 1 amine or outer side, 2 acyl side, 3 side chain; linkers in the order of their positions; H or OH if unused. Non-standard residues stand in square brackets, D forms with d. Groups on a side chain read outwards from the residue. No end group written: not given here. *: point of attachment. C20 diacid = O=C(O)CCCCCCCCCCCCCCCCCCC(=O)*; C18 diacid = O=C(O)CCCCCCCCCCCCCCCCC(=O)*; γGlu = O=C(O)[C@H](CCC(=O)[*:2])N[*:1]; Palmitoyl = CCCCCCCCCCCCCCCC(=O)*; AEEA = NCCOCCOCC(=O)O; Aib = CC(C)(N)C(=O)O
B1: SEQ ID NO: 77 (peptide)
peptide: IVLSLDVPIKLK([AEEA-AEEA-γGlu-C18 diacid])QILLKQERQKKQRQKAETNKQILAQV-NH2
modifications: N-terminus assumed
SMILES: CC[C@H](C)[C@H](N)C(=O)N[C@H](C(=O)N[C@@H](CC(C)C)C(=O)N[C@@H](CO)C(=O)N[C@@H](CC(C)C)C(=O)N[C@@H](CC(=O)O)C(=O)N[C@H](C(=O)N1CCC[C@H]1C(=O)N[C@H](C(=O)N[C@@H](CCCCN)C(=O)N[C@@H](CC(C)C)C(=O)N[C@@H](CCCCNC(=O)COCCOCCNC(=O)COCCOCCNC(=O)CC[C@H](NC(=O)CCCCCCCCCCCCCCCCC(=O)O)C(=O)O)C(=O)N[C@@H](CCC(N)=O)C(=O)N[C@H](C(=O)N[C@@H](CC(C)C)C(=O)N[C@@H](CC(C)C)C(=O)N[C@@H](CCCCN)C(=O)N[C@@H](CCC(N)=O)C(=O)N[C@@H](CCC(=O)O)C(=O)N[C@@H](CCCNC(=N)N)C(=O)N[C@@H](CCC(N)=O)C(=O)N[C@@H](CCCCN)C(=O)N[C@@H](CCCCN)C(=O)N[C@@H](CCC(N)=O)C(=O)N[C@@H](CCCNC(=N)N)C(=O)N[C@@H](CCC(N)=O)C(=O)N[C@@H](CCCCN)C(=O)N[C@@H](C)C(=O)N[C@@H](CCC(=O)O)C(=O)N[C@H](C(=O)N[C@@H](CC(N)=O)C(=O)N[C@@H](CCCCN)C(=O)N[C@@H](CCC(N)=O)C(=O)N[C@H](C(=O)N[C@@H](CC(C)C)C(=O)N[C@@H](C)C(=O)N[C@@H](CCC(N)=O)C(=O)N[C@H](C(N)=O)C(C)C)[C@@H](C)CC)[C@@H](C)O)[C@@H](C)CC)[C@@H](C)CC)C(C)C)C(C)C
B2: SEQ ID NO: 81 (peptide)
peptide: IVLSLDVPIKLK([AEEA-AEEA-γGlu-C20 diacid])QILLEQEKQK[Aib]QREQAETNKQILAQV-NH2
modifications: N-terminus assumed
SMILES: CC[C@H](C)[C@H](N)C(=O)N[C@H](C(=O)N[C@@H](CC(C)C)C(=O)N[C@@H](CO)C(=O)N[C@@H](CC(C)C)C(=O)N[C@@H](CC(=O)O)C(=O)N[C@H](C(=O)N1CCC[C@H]1C(=O)N[C@H](C(=O)N[C@@H](CCCCN)C(=O)N[C@@H](CC(C)C)C(=O)N[C@@H](CCCCNC(=O)COCCOCCNC(=O)COCCOCCNC(=O)CC[C@H](NC(=O)CCCCCCCCCCCCCCCCCCC(=O)O)C(=O)O)C(=O)N[C@@H](CCC(N)=O)C(=O)N[C@H](C(=O)N[C@@H](CC(C)C)C(=O)N[C@@H](CC(C)C)C(=O)N[C@@H](CCC(=O)O)C(=O)N[C@@H](CCC(N)=O)C(=O)N[C@@H](CCC(=O)O)C(=O)N[C@@H](CCCCN)C(=O)N[C@@H](CCC(N)=O)C(=O)N[C@@H](CCCCN)C(=O)NC(C)(C)C(=O)N[C@@H](CCC(N)=O)C(=O)N[C@@H](CCCNC(=N)N)C(=O)N[C@@H](CCC(=O)O)C(=O)N[C@@H](CCC(N)=O)C(=O)N[C@@H](C)C(=O)N[C@@H](CCC(=O)O)C(=O)N[C@H](C(=O)N[C@@H](CC(N)=O)C(=O)N[C@@H](CCCCN)C(=O)N[C@@H](CCC(N)=O)C(=O)N[C@H](C(=O)N[C@@H](CC(C)C)C(=O)N[C@@H](C)C(=O)N[C@@H](CCC(N)=O)C(=O)N[C@H](C(N)=O)C(C)C)[C@@H](C)CC)[C@@H](C)O)[C@@H](C)CC)[C@@H](C)CC)C(C)C)C(C)C
B3: SEQ ID NO: 80 (peptide)
peptide: IVLSLDVPTKLK([AEEA-AEEA-γGlu-C20 diacid])QILLEQERQKKQREQAETN[Aib]QILAQV-NH2
modifications: N-terminus assumed
SMILES: CC[C@H](C)[C@H](N)C(=O)N[C@H](C(=O)N[C@@H](CC(C)C)C(=O)N[C@@H](CO)C(=O)N[C@@H](CC(C)C)C(=O)N[C@@H](CC(=O)O)C(=O)N[C@H](C(=O)N1CCC[C@H]1C(=O)N[C@H](C(=O)N[C@@H](CCCCN)C(=O)N[C@@H](CC(C)C)C(=O)N[C@@H](CCCCNC(=O)COCCOCCNC(=O)COCCOCCNC(=O)CC[C@H](NC(=O)CCCCCCCCCCCCCCCCCCC(=O)O)C(=O)O)C(=O)N[C@@H](CCC(N)=O)C(=O)N[C@H](C(=O)N[C@@H](CC(C)C)C(=O)N[C@@H](CC(C)C)C(=O)N[C@@H](CCC(=O)O)C(=O)N[C@@H](CCC(N)=O)C(=O)N[C@@H](CCC(=O)O)C(=O)N[C@@H](CCCNC(=N)N)C(=O)N[C@@H](CCC(N)=O)C(=O)N[C@@H](CCCCN)C(=O)N[C@@H](CCCCN)C(=O)N[C@@H](CCC(N)=O)C(=O)N[C@@H](CCCNC(=N)N)C(=O)N[C@@H](CCC(=O)O)C(=O)N[C@@H](CCC(N)=O)C(=O)N[C@@H](C)C(=O)N[C@@H](CCC(=O)O)C(=O)N[C@H](C(=O)N[C@@H](CC(N)=O)C(=O)NC(C)(C)C(=O)N[C@@H](CCC(N)=O)C(=O)N[C@H](C(=O)N[C@@H](CC(C)C)C(=O)N[C@@H](C)C(=O)N[C@@H](CCC(N)=O)C(=O)N[C@H](C(N)=O)C(C)C)[C@@H](C)CC)[C@@H](C)O)[C@@H](C)CC)[C@@H](C)O)C(C)C)C(C)C
B4: SEQ ID NO: 5 (peptide)
peptide: IVLSLDVPIGLK([γGlu-Palmitoyl])QKLLKQQRQRKERQQAETNARILARV-NH2
modifications: N-terminus assumed
SMILES: CCCCCCCCCCCCCCCC(=O)N[C@@H](CCC(=O)NCCCC[C@H](NC(=O)[C@H](CC(C)C)NC(=O)CNC(=O)[C@@H](NC(=O)[C@@H]1CCCN1C(=O)[C@@H](NC(=O)[C@H](CC(=O)O)NC(=O)[C@H](CC(C)C)NC(=O)[C@H](CO)NC(=O)[C@H](CC(C)C)NC(=O)[C@@H](NC(=O)[C@@H](N)[C@@H](C)CC)C(C)C)C(C)C)[C@@H](C)CC)C(=O)N[C@@H](CCC(N)=O)C(=O)N[C@@H](CCCCN)C(=O)N[C@@H](CC(C)C)C(=O)N[C@@H](CC(C)C)C(=O)N[C@@H](CCCCN)C(=O)N[C@@H](CCC(N)=O)C(=O)N[C@@H](CCC(N)=O)C(=O)N[C@@H](CCCNC(=N)N)C(=O)N[C@@H](CCC(N)=O)C(=O)N[C@@H](CCCNC(=N)N)C(=O)N[C@@H](CCCCN)C(=O)N[C@@H](CCC(=O)O)C(=O)N[C@@H](CCCNC(=N)N)C(=O)N[C@@H](CCC(N)=O)C(=O)N[C@@H](CCC(N)=O)C(=O)N[C@@H](C)C(=O)N[C@@H](CCC(=O)O)C(=O)N[C@H](C(=O)N[C@@H](CC(N)=O)C(=O)N[C@@H](C)C(=O)N[C@@H](CCCNC(=N)N)C(=O)N[C@H](C(=O)N[C@@H](CC(C)C)C(=O)N[C@@H](C)C(=O)N[C@@H](CCCNC(=N)N)C(=O)N[C@H](C(N)=O)C(C)C)[C@@H](C)CC)[C@@H](C)O)C(=O)O
B5: SEQ ID NO: 79 (peptide)
peptide: IVLSLDVPIKLK([AEEA-AEEA-γGlu-C18 diacid])QILLEQEKQK[Aib]QREQAETNKQILAQV-NH2
modifications: N-terminus assumed
SMILES: CC[C@H](C)[C@H](N)C(=O)N[C@H](C(=O)N[C@@H](CC(C)C)C(=O)N[C@@H](CO)C(=O)N[C@@H](CC(C)C)C(=O)N[C@@H](CC(=O)O)C(=O)N[C@H](C(=O)N1CCC[C@H]1C(=O)N[C@H](C(=O)N[C@@H](CCCCN)C(=O)N[C@@H](CC(C)C)C(=O)N[C@@H](CCCCNC(=O)COCCOCCNC(=O)COCCOCCNC(=O)CC[C@H](NC(=O)CCCCCCCCCCCCCCCCC(=O)O)C(=O)O)C(=O)N[C@@H](CCC(N)=O)C(=O)N[C@H](C(=O)N[C@@H](CC(C)C)C(=O)N[C@@H](CC(C)C)C(=O)N[C@@H](CCC(=O)O)C(=O)N[C@@H](CCC(N)=O)C(=O)N[C@@H](CCC(=O)O)C(=O)N[C@@H](CCCCN)C(=O)N[C@@H](CCC(N)=O)C(=O)N[C@@H](CCCCN)C(=O)NC(C)(C)C(=O)N[C@@H](CCC(N)=O)C(=O)N[C@@H](CCCNC(=N)N)C(=O)N[C@@H](CCC(=O)O)C(=O)N[C@@H](CCC(N)=O)C(=O)N[C@@H](C)C(=O)N[C@@H](CCC(=O)O)C(=O)N[C@H](C(=O)N[C@@H](CC(N)=O)C(=O)N[C@@H](CCCCN)C(=O)N[C@@H](CCC(N)=O)C(=O)N[C@H](C(=O)N[C@@H](CC(C)C)C(=O)N[C@@H](C)C(=O)N[C@@H](CCC(N)=O)C(=O)N[C@H](C(N)=O)C(C)C)[C@@H](C)CC)[C@@H](C)O)[C@@H](C)CC)[C@@H](C)CC)C(C)C)C(C)C
B6: SEQ ID NO: 78 (peptide)
peptide: IVLSLDVPTKLK([AEEA-AEEA-γGlu-C18 diacid])QILLEQERQKKQREQAETN[Aib]QILAQV-NH2
modifications: N-terminus assumed
SMILES: CC[C@H](C)[C@H](N)C(=O)N[C@H](C(=O)N[C@@H](CC(C)C)C(=O)N[C@@H](CO)C(=O)N[C@@H](CC(C)C)C(=O)N[C@@H](CC(=O)O)C(=O)N[C@H](C(=O)N1CCC[C@H]1C(=O)N[C@H](C(=O)N[C@@H](CCCCN)C(=O)N[C@@H](CC(C)C)C(=O)N[C@@H](CCCCNC(=O)COCCOCCNC(=O)COCCOCCNC(=O)CC[C@H](NC(=O)CCCCCCCCCCCCCCCCC(=O)O)C(=O)O)C(=O)N[C@@H](CCC(N)=O)C(=O)N[C@H](C(=O)N[C@@H](CC(C)C)C(=O)N[C@@H](CC(C)C)C(=O)N[C@@H](CCC(=O)O)C(=O)N[C@@H](CCC(N)=O)C(=O)N[C@@H](CCC(=O)O)C(=O)N[C@@H](CCCNC(=N)N)C(=O)N[C@@H](CCC(N)=O)C(=O)N[C@@H](CCCCN)C(=O)N[C@@H](CCCCN)C(=O)N[C@@H](CCC(N)=O)C(=O)N[C@@H](CCCNC(=N)N)C(=O)N[C@@H](CCC(=O)O)C(=O)N[C@@H](CCC(N)=O)C(=O)N[C@@H](C)C(=O)N[C@@H](CCC(=O)O)C(=O)N[C@H](C(=O)N[C@@H](CC(N)=O)C(=O)NC(C)(C)C(=O)N[C@@H](CCC(N)=O)C(=O)N[C@H](C(=O)N[C@@H](CC(C)C)C(=O)N[C@@H](C)C(=O)N[C@@H](CCC(N)=O)C(=O)N[C@H](C(N)=O)C(C)C)[C@@H](C)CC)[C@@H](C)O)[C@@H](C)CC)[C@@H](C)O)C(C)C)C(C)C

Target: human corticotropin-releasing factor 2α (CRF2 α receptor) (human), Q13324
Sequence (Q13324 20-411): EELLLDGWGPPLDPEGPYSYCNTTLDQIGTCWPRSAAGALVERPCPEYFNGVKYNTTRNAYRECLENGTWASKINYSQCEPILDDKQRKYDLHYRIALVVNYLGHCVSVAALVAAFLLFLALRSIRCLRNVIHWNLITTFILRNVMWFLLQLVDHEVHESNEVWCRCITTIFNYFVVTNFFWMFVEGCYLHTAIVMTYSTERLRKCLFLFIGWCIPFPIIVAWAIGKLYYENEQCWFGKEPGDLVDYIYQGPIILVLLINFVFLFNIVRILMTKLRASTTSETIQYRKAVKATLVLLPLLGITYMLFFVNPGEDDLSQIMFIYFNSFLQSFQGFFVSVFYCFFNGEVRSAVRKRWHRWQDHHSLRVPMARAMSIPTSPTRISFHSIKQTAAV
Test: cell-based or functional assay

Row | Binder | EC50 [nM], 0% HSA | EC50 [nM], 0.1% HSA
1 | B1 | 0.33 nM | –
2 | B2 | 0.14 nM | 18.5 nM
3 | B3 | 0.9 nM | 92.5 nM
4 | B4 | 0.04 nM | –
5 | B5 | 0.46 nM | –
6 | B6 | 10.6 nM | –
